The supplement of paper PMC12458215
± gives the uncertainty stated by the source.

System: HEK293T
Test: plasma membrane surface immunostaining intensity (anti-HA, deep receptor scanning) (arbitrary fluorescence units); higher = higher plasma membrane expression

## MDQFPESVTENFEYDDLAEACYIGDIVVFGTVFLSIFYSVIFAIGLVGNLLVVFALTNSKKPKSVTDIYLLNLALSDLLFVATLPFWTHYLINEKGLHNAMCKFTTAFFFIGFFGSIFFITVISIDRYLAIVLAANSMNNRTVQHGVTISLGVWAAAILVAAPQFMFTKQKENECLGDYPEVLQEIWPVLRNVETNFLGFLLPLLIMSYCYFRIIQTLFSCKNHKKAKAIKLILLVVIVFFLFWTPYNVMIFLETLKLYDFFPSCDMRKDLRLALSVTETVAFSHCCLNPLIYAFAGEKFRRYLYHLYGKCLAVLCGRSVHVDFSSSESQRSRHGSVLSSNFTYHTSDGDALLLL [CX3CR1]
GPCR class: A
  plasma membrane surface immunostaining intensity: 196 ± 34

## MDRRMWGAHVFCVLSPLPTVLGHMHPECDFITQLREDESACLQAAEEMPNTTLGCPATWDGLLCWPTAGSGEWVTLPCPDFFSHFSSESGAVKRDCTITGWSEPFPPYPVACPVPLELLAEEESYFSTVKIIYTVGHSISIVALFVAITILVALRRLHCPRNYVHTQLFTTFILKAGAVFLKDAALFHSDDTDHCSFSTVLCKVSVAASHFATMTNFSWLLAEAVYLNCLLASTSPSSRRAFWWLVLAGWGLPVLFTGTWVSCKLAFEDIACWDLDDTSPYWWIIKGPIVLSVGVNFGLFLNIIRILVRKLEPAQGSLHTQSQYWRLSKSTLFLIPLFGIHYIIFNFLPDNAGLGIRLPLELGLGSFQGFIVAILYCFLNQEVRTEISRKWHGHDPELLPAWRTRAKWTTPSRSAAKVLTSMC [GHRHR]
GPCR class: B
  plasma membrane surface immunostaining intensity: 108 ± 5.4

## MDSFNYTTPDYGHYDDKDTLDLNTPVDKTSNTLRVPDILALVIFAVVFLVGVLGNALVVWVTAFEAKRTINAIWFLNLAVADFLSCLALPILFTSIVQHHHWPFGGAACSILPSLILLNMYASILLLATISADRFLLVFKPIWCQNFRGAGLAWIACAVAWGLALLLTIPSFLYRVVREEYFPPKVLCGVDYSHDKRRERAVAIVRLVLGFLWPLLTLTICYTFILLRTWSRRATRSTKTLKVVVAVVASFFIFWLPYQVTGIMMSFLEPSSPTFLLLKKLDSLCVSFAYINCCINPIIYVVAGQGFQGRLRKSLPSLLRNVLTEESVVRESKSFTRSTVDTMAQKTQAV [C5AR1]
GPCR class: A
  plasma membrane surface immunostaining intensity: 6196 ± 24

## MDSGPLWDANPTPRGTLSAPNATTPWLGRDEELAKVEIGVLATVLVLATGGNLAVLLTLGQLGRKRSRMHLFVLHLALTDLAVALFQVLPQLLWDITYRFQGPDLLCRAVKYLQVLSMFASTYMLLAMTLDRYLAVCHPLRSLQQPGQSTYLLIAAPWLLAAIFSLPQVFIFSLREVIQGSGVLDCWADFGFPWGPRAYLTWTTLAIFVLPVTMLTACYSLICHEICKNLKVKTQAWRVGGGGWRTWDRPSPSTLAATTRGLPSRVSSINTISRAKIRTVKMTFVIVLAYIACWAPFFSVQMWSVWDKNAPDEDSTNVAFTISMLLGNLNSCCNPWIYMGFNSHLLPRPLRHLACCGGPQPRMRRRLSDGSLSSRHTTLLTRSSCPATLSLSLSLTLSGRPRPEESPRDLELADGEGTAETIIF [AVPR1B]
GPCR class: A
  plasma membrane surface immunostaining intensity: 665 ± 110

## MDSTIPVLGTELTPINGREETPCYKQTLSFTGLTCIVSLVALTGNAVVLWLLGCRMRRNAVSIYILNLVAADFLFLSGHIICSPLRLINIRHPISKILSPVMTFPYFIGLSMLSAISTERCLSILWPIWYHCRRPRYLSSVMCVLLWALSLLRSILEWMFCDFLFSGANSVWCETSDFITIAWLVFLCVVLCGSSLVLLVRILCGSRKMPLTRLYVTILLTVLVFLLCGLPFGIQWALFSRIHLDWKVLFCHVHLVSIFLSALNSSANPIIYFFVGSFRQRQNRQNLKLVLQRALQDTPEVDEGGGWLPQETLELSGSRLEQ [MRGPRX3]
GPCR class: A
  plasma membrane surface immunostaining intensity: 135 ± 14

## MDTGNWSQVAEFIILGFPHLQGVQIYLFLLLLLIYLMTVLGNLLIFLVVCLDSRLHTPMYHFVSILSFSELGYTAATIPKMLANLLSEKKTISFSGCLLQIYFFHSLGATECYLLTAMAYDRYLAICRPLHYPTLMTPTLCAEIAIGCWLGGLAGPVVEISLISRLPFCGPNRIQHVFCDFPPVLSLACTDTSINVLVDFVINSCKILATFLLILCSYVQIICTVLRIPSAAGKRKAISTCASHFTVVLIFYGSILSMYVQLKKSYSLDYDQALAVVYSVLTPFLNPFIYSLRNKEIKEAVRRQLKRIGILA [OR6N1]
GPCR class: A (Olfactory)
  plasma membrane surface immunostaining intensity: 347 ± 130

## MDTGPDQSYFSGNHWFVFSVYLLTFLVGLPLNLLALVVFVGKLQRRPVAVDVLLLNLTASDLLLLLFLPFRMVEAANGMHWPLPFILCPLSGFIFFTTIYLTALFLAAVSIERFLSVAHPLWYKTRPRLGQAGLVSVACWLLASAHCSVVYVIEFSGDISHSQGTNGTCYLEFRKDQLAILLPVRLEMAVVLFVVPLIITSYCYSRLVWILGRGGSHRRQRRVAGLLAATLLNFLVCFGPYNVSHVVGYICGESPAWRIYVTLLSTLNSCVDPFVYYFSSSGFQADFHELLRRLCGLWGQWQQESSMELKEQKGGEEQRADRPAERKTSEHSQGCGTGGQVACAES [FFAR3]
GPCR class: A
  plasma membrane surface immunostaining intensity: 6440 ± 110

## MDTGPDQSYFSGNHWFVFSVYLLTFLVGLPLNLLALVVFVGKLRCRPVAVDVLLLNLTASDLLLLLFLPFRMVEAANGMHWPLPFILCPLSGFIFFTTIYLTALFLAAVSIERFLSVAHPLWYKTRPRLGQAGLVSVACWLLASAHCSVVYVIEFSGDISHSQGTNGTCYLEFRKDQLAILLPVRLEMAVVLFVVPLIITSYCYSRLVWILGRGGSHRRQRRVAGLVAATLLNFLVCFGPYNVSHVVGYICGESPVWRIYVTLLSTLNSCVDPFVYYFSSSGFQADFHELLRRLCGLWGQWQQESSMELKEQKGGEEQRADRPAERKTSEHSQGCGTGGQVACAEN [GPR42]
GPCR class: A
  plasma membrane surface immunostaining intensity: 798 ± 40

## MDTSRLGVLLSLPVLLQLATGGSSPRSGVLLRGCPTHCHCEPDGRMLLRVDCSDLGLSELPSNLSVFTSYLDLSMNNISQLLPNPLPSLRFLEELRLAGNALTYIPKGAFTGLYSLKVLMLQNNQLRHVPTEALQNLRSLQSLRLDANHISYVPPSCFSGLHSLRHLWLDDNALTEIPVQAFRSLSALQAMTLALNKIHHIPDYAFGNLSSLVVLHLHNNRIHSLGKKCFDGLHSLETLDLNYNNLDEFPTAIRTLSNLKELGFHSNNIRSIPEKAFVGNPSLITIHFYDNPIQFVGRSAFQHLPELRTLTLNGASQITEFPDLTGTANLESLTLTGAQISSLPQTVCNQLPNLQVLDLSYNLLEDLPSFSVCQKLQKIDLRHNEIYEIKVDTFQQLLSLRSLNLAWNKIAIIHPNAFSTLPSLIKLDLSSNLLSSFPITGLHGLTHLKLTGNHALQSLISSENFPELKVIEMPYAYQCCAFGVCENAYKISNQWNKGDNSSMDDLHKKDAGMFQAQDERDLEDFLLDFEEDLKALHSVQCSPSPGPFKPCEHLLDGWLIRIGVWTIAVLALTCNALVTSTVFRSPLYISPIKLLIGVIAAVNMLTGVSSAVLAGVDAFTFGSFARHGAWWENGVGCHVIGFLSIFASESSVFLLTLAALERGFSVKYSAKFETKAPFSSLKVIILLCALLALTMAAVPLLGGSKYGASPLCLPLPFGEPSTMGYMVALILLNSLCFLMMTIAYTKLYCNLDKGDLENIWDCSMVKHIALLLFTNCILNCPVAFLSFSSLINLTFISPEVIKFILLVVVPLPACLNPLLYILFNPHFKEDLVSLRKQTYVWTRSKHPSLMSINSDDVEKQSCDSTQALVTFTSSSITYDLPPSSVPSPAYPVTESCHLSSVAFVPCL [LGR5]
GPCR class: A
  plasma membrane surface immunostaining intensity: 283 ± 25

## MDVLSPGQGNNTTSPPAPFETGGNTTGISDVTVSYQVITSLLLGTLIFCAVLGNACVVAAIALERSLQNVANYLIGSLAVTDLMVSVLVLPMAALYQVLNKWTLGQVTCDLFIALDVLCCTSSILHLCAIALDRYWAITDPIDYVNKRTPRRAAALISLTWLIGFLISIPPMLGWRTPEDRSDPDACTISKDHGYTIYSTFGAFYIPLLLMLVLYGRIFRAARFRIRKTVKKVEKTGADTRHGASPAPQPKKSVNGESGSRNWRLGVESKAGGALCANGAVRQGDDGAALEVIEVHRVGNSKEHLPLPSEAGPTPCAPASFERKNERNAEAKRKMALARERKTVKTLGIIMGTFILCWLPFFIVALVLPFCESSCHMPTLLGAIINWLGYSNSLLNPVIYAYFNKDFQNAFKKIIKCKFCRQ [HTR1A]
GPCR class: A
  plasma membrane surface immunostaining intensity: 5670 ± 440

## MDVVDSLLVNGSNITPPCELGLENETLFCLDQPRPSKEWQPAVQILLYSLIFLLSVLGNTLVITVLIRNKRMRTVTNIFLLSLAVSDLMLCLFCMPFNLIPNLLKDFIFGSAVCKTTTYFMGTSVSVSTFNLVAISLERYGAICKPLQSRVWQTKSHALKVIAATWCLSFTIMTPYPIYSNLVPFTKNNNQTANMCRFLLPNDVMQQSWHTFLLLILFLIPGIVMMVAYGLISLELYQGIKFEASQKKSAKERKPSTTSSGKYEDSDGCYLQKTRPPRKLELRQLSTGSSSRANRIRSNSSAANLMAKKRVIRMLIVIVVLFFLCWMPIFSANAWRAYDTASAERRLSGTPISFILLLSYTSSCVNPIIYCFMNKRFRLGFMATFPCCPNPGPPGARGEVGEEEEGGTTGASLSRFSYSHMSASVPPQ [CCKAR]
GPCR class: A
  plasma membrane surface immunostaining intensity: 6447 ± 43

## MEAANESSEGISFVLLGLTTSPGQQRPLFVLFLLLYVASLLGNGLIVAAIQASPALHAPMYFLLAHLSFADLCFASVTVPKMLANLLAHDHSISLAGCLTQMYFFFALGVTDSCLLAAMAYDCYVAIRHPLPYATRMSRAMCAALVGMAWLVSHVHSLLYILLMARLSFCASHQVPHFFCDHQPLLRLSCSDTHHIQLLIFTEGAAVVVTPFLLILASYGAIAAAVLQLPSASGRLRAVSTCGSHLAVVSLFYGTVIAVYFQATSRREAEWGRVATVMYTVVTPMLNPIIYSLWNRDVQGALRALLIGRRISASDS [OR1K1]
GPCR class: A (Olfactory)
  plasma membrane surface immunostaining intensity: 223 ± 69

## MEAENLTELSKFLLLGLSDDPELQPVLFGLFLSMYLVTVLGNLLIILAVSSDSHLHTPMYFFLSNLSFVDICFISTTVPKMLVSIQARSKDISYMGCLTQVYFLMMFAGMDTFLLAVMAYDRFVAICHPLHYTVIMNPCLCGLLVLASWFIIFWFSLVHILLMKRLTFSTGTEIPHFFCEPAQVLKVACSNTLLNNIVLYVATALLGVFPVAGILFSYSQIVSSLMGMSSTKGKYKAFSTCGSHLCVVSLFYGTGLGVYLSSAVTHSSQSSSTASVMYAMVTPMLNPFIYSLRNKDVKGALERLLSRADSCP [OR7D4]
GPCR class: A (Olfactory)
  plasma membrane surface immunostaining intensity: 157 ± 48

## MEAGNQTGFLEFILLGLSEDPELQPFIFGLFLSMYLVTVLGNLLIILAISSDSHLHTPMYFFLSNLSWVDICFSTCIVPKMLVNIQTENKAISYMDCLTQVYFSMFFPILDTLLLTVMAYDRFVAVCHPLHYMIIMNPHLCGLLVFVTWLIGVMTSLLHISLMMHLIFCKDFEIPHFFCELTYILQLACSDTFLNSTLIYFMTGVLGVFPLLGIIFSYSRIASSIRKMSSSGGKQKALSTCGSHLSVVSLFYGTGIGVHFTSAVTHSSQKISVASVMYTVVTPMLNPFIYSLRNKDVKGALGSLLSRAASCL [OR7D2]
GPCR class: A (Olfactory)
  plasma membrane surface immunostaining intensity: 118 ± 23

## MEARNQTAISKFLLLGLIEDPELQPVLFSLFLSMYLVTILGNLLILLAVISDSHLHTPMYFFLSNLSFLDICLSTTTIPKMLVNIQAQNRSITYSGCLTQICFVLFFAGLENCLLAAMAYDRYVAICHPLRYTVIMNPRLCGLLILLSLLTSVVNALLLSLMVLRLSFCTDLEIPLFFCELAQVIQLTCSDTLINNILIYFAACIFGGVPLSGIILSYTQITSCVLRMPSASGKHKAVSTCGSHLSIVLLFYGAGLGVYISSVVTDSPRKTAVASVMYSVFPQMVNPFIYSLRNKDMKGTLRKFIGRIPSLLWCAICFGFRFLE [OR7G2]
GPCR class: A (Olfactory)
  plasma membrane surface immunostaining intensity: 165 ± 53
